Source: publication PMC5678078 (2017)

T1: recombinant matriptase protease domain with an N-terminal thioredoxin tag (Trx-MTX PD) (human) (UniProt Q9Y5Y6)
T1 sequence: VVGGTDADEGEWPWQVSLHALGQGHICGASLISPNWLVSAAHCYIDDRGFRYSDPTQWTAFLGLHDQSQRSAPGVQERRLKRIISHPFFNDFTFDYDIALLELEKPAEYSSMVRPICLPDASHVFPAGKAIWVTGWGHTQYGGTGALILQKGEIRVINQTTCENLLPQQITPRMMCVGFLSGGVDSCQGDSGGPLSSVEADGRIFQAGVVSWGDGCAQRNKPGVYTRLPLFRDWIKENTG

T2: recombinant matriptase protease domain with an N-terminal thioredoxin tag (Trx-MTX PD) (human, UniProt Q9Y5Y6 615-854)
T2 chain: T1 sequence

B1: GST fusion protein of HAI-2 Kunitz domain 1 (GST-KD1) (domain or fragment)
chain: CLVSKVVGRCRASMPRWWYNVTDGSCQLFVYGGCDGNSNNYLTKEECLKKC
B2: recombinant HAI-2 wild type (rHAI-2 WT) from the baculovirus expression system (domain or fragment)
chain: ADRERSIHDFCLVSKVVGRCRASMPRWWYNVTDGSCQLFVYGGCDGNSNNYLTKEECLKKCATVTENATGDLATSRNAADSSVPSAPRRQDSEDHSSDMFNYEEYCTANAVTGPCRASFPRWYFDVERNSCNNFIYGGCRGNKNSYRSEEACMLRCFRQQENPPLPLGSK
B3: GST fusion protein of HAI-2 Kunitz domain 2 (GST-KD2) (domain or fragment)
chain: CTANAVTGPCRASFPRWYFDVERNSCNNFIYGGCRGNKNSYRSEEACMLRC

Assays:
[1] = target: T1, recombinant matriptase protease domain with an N-terminal thioredoxin tag (Trx-MTX PD) (human)
[2] = target: T1, recombinant matriptase protease domain with an N-terminal thioredoxin tag (Trx-MTX PD) (human); experiment: SPR; BIAcore; Trx-MTX PD amine-coupled to a CM5 chip; GST fusion proteins as analytes at 30 µl/min, 120 sec association, 180 sec dissociation; 10 mM HEPES, 150 mM NaCl, pH 7.4; KD by affinity analysis (BIAevaluation), called estimated
[3] = target: T2, recombinant matriptase protease domain …; experiment: SPR

Molecule | Kd [2] [nM] | Kd [3] [nM] | further results
recombinant HAI-2 KD2-deleted mutant (rHAI-2ΔKD2) from the baculovirus expression system (from UniProt O43291 28-197) (domain or fragment) |  |  | inhibition of the in vitro proteolytic activity of Trx-MTX PD (100 nM) on Boc-Gln-Ala-Arg-AMC by rHAI-2ΔKD2 (500 nM) [1]: 99%
recombinant HAI-2 KD1-deleted mutant (rHAI-2ΔKD1) from the baculovirus expression system (from UniProt O43291 28-197) (domain or fragment) |  |  | inhibition of the in vitro proteolytic activity of Trx-MTX PD (100 nM) on Boc-Gln-Ala-Arg-AMC by rHAI-2ΔKD1 (500 nM) [1]: 80%
B1 | 10 | 45.7 | 
B2 |  |  | inhibition of the in vitro proteolytic activity of Trx-MTX PD (100 nM) on Boc-Gln-Ala-Arg-AMC by rHAI-2 WT (500 nM) [1]: 99%
B3 | 10 | 35.5 | 
